From patent US20250320281A1

Key:
[1] = target: HIV-1 APV13 envelope glycoprotein (Env) on pseudovirus (HIV-1); assay: cell-based or functional assay
[2] = target: HIV-1 APV17 envelope glycoprotein (Env) on pseudovirus (HIV-1); assay: cell-based or functional assay
[3] = target: HIV-1 Env of isolate 92BR020 (subtype B pseudovirus) (HIV-1); assay: cell-based or functional assay
[4] = target: HIV-1 Env of isolate 93MW959 (HIV-1); assay: cell-based or functional assay
[5] = target: HIV-1 Env of isolate JR-FL (subtype B pseudovirus) (HIV-1); assay: cell-based or functional assay
[6] = target: HIV-1 Env of isolate MGRM-AG-008 (HIV-1); assay: cell-based or functional assay
[7] = target: HIV-1 MGRM-A-010 envelope glycoprotein (Env) on pseudovirus (HIV-1); assay: cell-based or functional assay
[8] = target: HIV-1 MGRM-AG-005 envelope glycoprotein (Env) on pseudovirus (HIV-1); assay: cell-based or functional assay
[9] = target: HIV-1 MGRM-C-026 envelope glycoprotein (Env) on pseudovirus (HIV-1); assay: cell-based or functional assay
[10] = target: HIV-1 MGRM-C-028 envelope glycoprotein (Env) on pseudovirus (HIV-1); assay: cell-based or functional assay
[11] = target: HIV-1 Env of isolate 93WR029 (subtype A) (HIV-1); assay: cell-based or functional assay
[12] = target: HIV-1 envelope glycoprotein (Env) of isolate 92BR020 (HIV-1); assay: cell-based or functional assay
JR-FL gp120 ΔV3 (HIV-1) = assay: ELISA, antigen-coated wells
[13] = target: HIV-1 92RW020 Env (HIV-1 92RW020); assay: cell-based or functional assay
[14] = target: HIV-1 Env of isolate 92UG046 (clade D), on pseudovirus (HIV-1); assay: cell-based or functional assay
[15] = target: HIV-1 Env of isolate 92UG114 (clade D), on pseudovirus (HIV-1); assay: cell-based or functional assay
[16] = target: HIV-1 Env of isolate APV6 (HIV-1); assay: cell-based or functional assay
[17] = target: HIV-1 Env of isolate CAAN.A2 (HIV-1); assay: cell-based or functional assay
[18] = target: HIV-1 Env of isolate MG RM-D-002 (clade D), on pseudovirus (HIV-1); assay: cell-based or functional assay
[19] = target: HIV-1 Env of isolate MG RM-D-003 (clade D), on pseudovirus (HIV-1); assay: cell-based or functional assay
[20] = target: HIV-1 Env of isolate MG RM-D-011 (clade D), on pseudovirus (HIV-1); assay: cell-based or functional assay
[21] = target: HIV-1 Env of isolate MG RM-D-012 (clade D), on pseudovirus (HIV-1); assay: cell-based or functional assay
[22] = target: HIV-1 Env of isolate MG RM-D-024 (clade D), on pseudovirus (HIV-1); assay: cell-based or functional assay
[23] = target: HIV-1 Env of isolate MG RM-D-028 (clade D), on pseudovirus (HIV-1); assay: cell-based or functional assay
[24] = target: HIV-1 Env of isolate MGRM-C-024 (clade C pseudovirus) (HIV-1); assay: cell-based or functional assay
[25] = target: HIV-1 Env of isolate MGRM-C-025 (clade C pseudovirus) (HIV-1); assay: cell-based or functional assay
[26] = target: HIV-1 Env of isolate MGRM-C-026 (clade C pseudovirus) (HIV-1); assay: cell-based or functional assay
[27] = target: HIV-1 Env of isolate MGRM-C-028 (clade C pseudovirus) (HIV-1); assay: cell-based or functional assay
[28] = target: HIV-1 Env of isolate MGRM-Chronic-B-018 (HIV-1); assay: cell-based or functional assay
[29] = target: HIV-1 Env of isolate MGRM-Chronic-B-023 (HIV-1); assay: cell-based or functional assay
[30] = target: HIV-1 Env of isolate MGRM-F1-006 (clade F), on pseudovirus (HIV-1); assay: cell-based or functional assay
[31] = target: HIV-1 Env of isolate MGRM-F1-010 (clade F), on pseudovirus (HIV-1); assay: cell-based or functional assay
[32] = target: HIV-1 Env of isolate MGRM-F1-012 (clade F), on pseudovirus (HIV-1); assay: cell-based or functional assay
[33] = target: HIV-1 Env of isolate MGRM-F1-016 (clade F), on pseudovirus (HIV-1); assay: cell-based or functional assay
[34] = target: HIV-1 Env of isolate MGRM-F1-018 (clade F pseudovirus) (HIV-1); assay: cell-based or functional assay
[35] = target: HIV-1 Env of pseudovirus 92WR009 (subtype A) (HIV-1); assay: cell-based or functional assay
[36] = target: HIV-1 Env of pseudovirus 92WR024 (subtype A) (HIV-1); assay: cell-based or functional assay
[37] = target: HIV-1 Env of pseudovirus MGRM-A-007 (subtype A) (HIV-1); assay: cell-based or functional assay
[38] = target: HIV-1 IAVI_C22 Env on pseudotyped virus (HIV-1 isolate IAVI_C22); assay: cell-based or functional assay

4993_K13 (PGT-141) (antibody), sequence (VH): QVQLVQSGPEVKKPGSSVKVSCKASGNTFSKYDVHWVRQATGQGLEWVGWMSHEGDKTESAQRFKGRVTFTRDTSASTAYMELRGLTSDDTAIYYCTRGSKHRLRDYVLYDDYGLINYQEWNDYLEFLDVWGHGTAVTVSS
4993_K13 (PGT-141) (antibody), sequence (VL): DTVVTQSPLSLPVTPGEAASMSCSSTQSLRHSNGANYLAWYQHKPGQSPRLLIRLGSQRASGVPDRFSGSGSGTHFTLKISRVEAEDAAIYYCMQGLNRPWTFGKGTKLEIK
4980_N08 (PGT-143) (antibody), sequence (VH): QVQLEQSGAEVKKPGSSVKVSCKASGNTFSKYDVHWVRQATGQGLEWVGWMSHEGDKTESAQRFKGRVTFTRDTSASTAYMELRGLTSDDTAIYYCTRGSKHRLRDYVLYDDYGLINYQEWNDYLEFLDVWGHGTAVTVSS
4980_N08 (PGT-143) (antibody), sequence (VL): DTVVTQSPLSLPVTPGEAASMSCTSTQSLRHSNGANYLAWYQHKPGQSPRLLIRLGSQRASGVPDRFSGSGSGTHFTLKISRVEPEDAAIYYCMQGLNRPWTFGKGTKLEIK

4858_P08 (PGT-123) (antibody)
neutralization IC50 [1]: 0.222 µg/mL | neutralization IC80 [1]: 0.879 µg/mL | neutralization IC90 [1]: 1.87 µg/mL | neutralization IC95 [1]: 3.5 µg/mL | neutralization IC50 [2]: 0.18 µg/mL | neutralization IC80 [2]: 0.539 µg/mL | neutralization IC90 [2]: 1.01 µg/mL | neutralization IC95 [2]: 1.75 µg/mL | IC50 (µg/mL), pseudovirus neutralization [3]: 0.008 µg/mL | neutralization IC50 [4]: 0.011 µg/mL | IC50 (µg/mL), pseudovirus neutralization [5]: 0.014 µg/mL | IC50 [6]: 19.2 µg/mL | neutralization IC50 [7]: 0.492 µg/mL | neutralization IC80 [7]: 2.79 µg/mL | neutralization IC90 [7]: 6.44 µg/mL | neutralization IC95 [7]: > 10 µg/mL | neutralization IC50 [8]: 0.104 µg/mL | neutralization IC80 [8]: 1.28 µg/mL | neutralization IC90 [8]: 6.38 µg/mL | neutralization IC95 [8]: > 10 µg/mL | neutralization IC50 [9]: 0.0031 µg/mL | neutralization IC80 [9]: 0.0094 µg/mL | neutralization IC90 [9]: 0.0183 µg/mL | neutralization IC95 [9]: 0.0338 µg/mL | neutralization IC50 [10]: 0.443 µg/mL | neutralization IC80 [10]: 2.8 µg/mL | neutralization IC90 [10]: 7.11 µg/mL | neutralization IC95 [10]: > 10 µg/mL

4980_N08 (PGT-143) (antibody)
IC50 (µg/mL), pseudovirus neutralization [11]: 0.053 µg/mL | IC50 (µg/mL), pseudovirus neutralization [12]: 25.9 µg/mL

4993_K13 (PGT-141) (antibody)
IC50 (µg/mL), pseudovirus neutralization [11]: 0.019 µg/mL | IC50 (µg/mL), pseudovirus neutralization [12]: 20.3 µg/mL

4877_D15 (PGT-122) (antibody)
IC50 (µg/mL), pseudovirus neutralization [3]: 0.021 µg/mL | neutralization IC50 [4]: 0.016 µg/mL | IC50 (µg/mL), pseudovirus neutralization [5]: 0.026 µg/mL | IC50 [6]: > 50 µg/mL

5145_B14 (PGT-127) (antibody)
IC50 (µg/mL), pseudovirus neutralization [3]: 0.059 µg/mL | neutralization IC50 [4]: 6.95 µg/mL | IC50 (µg/mL), pseudovirus neutralization [5]: 0.029 µg/mL | IC50 [6]: > 50 µg/mL

4838_L06 (PGT-121) (antibody)
EC50 (JR-FL gp120 ΔV3 (HIV-1)): > 10 µg/mL

5123_A06 (PGT-125) (antibody)
IC50 (µg/mL), pseudovirus neutralization [3]: 0.016 µg/mL | neutralization IC50 [4]: 37.5 µg/mL | IC50 (µg/mL), pseudovirus neutralization [5]: 0.009 µg/mL | IC50 [6]: > 50 µg/mL

5343_B08 (PGT-135) (antibody)
EC50 (JR-FL gp120 ΔV3 (HIV-1)): 0.2 µg/mL

1496_C09 (PG9) (TCN-109) (antibody)
IC50 (ug/ml), pseudovirus neutralization, TZM-bl assay [13]: 0.1 µg/mL | IC50 (µg/mL), pseudovirus neutralization [14]: 1.86 µg/mL | IC50 (µg/mL), pseudovirus neutralization [15]: 40.6 µg/mL | IC50 (µg/mL), pseudovirus neutralization [16]: 0.181 µg/mL | IC50 (µg/mL), pseudovirus neutralization [17]: 19.3 µg/mL | IC50 (µg/mL), pseudovirus neutralization [18]: 0.021 µg/mL | IC50 (µg/mL), pseudovirus neutralization [19]: 0.033 µg/mL | IC50 (µg/mL), pseudovirus neutralization [20]: 0.071 µg/mL | IC50 (µg/mL), pseudovirus neutralization [21]: 16.2 µg/mL | IC50 (µg/mL), pseudovirus neutralization [22]: 0.038 µg/mL | IC50 (µg/mL), pseudovirus neutralization [23]: 20.2 µg/mL | IC50 (µg/mL), pseudovirus neutralization [24]: 0.227 µg/mL | IC50 (µg/mL), pseudovirus neutralization [25]: 0.148 µg/mL | IC50 (µg/mL), pseudovirus neutralization [26]: 0.06 µg/mL | IC50 (µg/mL), pseudovirus neutralization [27]: 0.067 µg/mL | IC50 (µg/mL), pseudovirus neutralization [28]: 0.216 µg/mL | IC50 (µg/mL), pseudovirus neutralization [29]: 0.027 µg/mL | IC50 (µg/mL), pseudovirus neutralization [30]: 7.25 µg/mL | IC50 (µg/mL), pseudovirus neutralization [31]: 0.012 µg/mL | IC50 (µg/mL), pseudovirus neutralization [32]: 0.023 µg/mL | IC50 (µg/mL), pseudovirus neutralization [33]: 0.518 µg/mL | IC50 (µg/mL), pseudovirus neutralization [34]: 0.019 µg/mL | IC50, pseudovirus neutralization [35]: 0.05 µg/mL | IC50, pseudovirus neutralization [36]: 0.258 µg/mL | IC50, pseudovirus neutralization [37]: 1.06 µg/mL | Neutralizing Antibody Assay: IC50; Virus/Ab Incubation 1 hour [38]: 24.9 µg/mL | Neutralizing Antibody Assay: IC50; Virus/Ab Incubation 18 hour [38]: 2.11 µg/mL
